Reference: publication PMC10311840, “Purification and characterization of inorganic pyrophosphatase for in vitro RNA transcription” (Biochemistry and cell biology = Biochimie et biologie …, 2022)
Several values for one entry are separate records, joined by “and”; a condition that tells them apart may be missing. Identical values can stand only once.

How the values were obtained:
[1] = biological target: the molecule itself; assay: SEC-MALS; SEC-MALS-DLS; Superdex 200 Increase 10/300 GL; 355 umol/L affinity-purified iPPase injected in 500 uL; 25 C; 80 mmol/L Tris-HCl pH 7.5, 30 mmol/L MgCl2, 4 mmol/L spermidine, 20 mmol/L NaCl, 4 mmol/L DTT; self-association, dimer, tetramer and hexamer peaks
[2] = biological target: the molecule itself; assay: SEC-SAXS; HPLC-SAXS at Diamond B21; 50 uL of 450 umol/L iPPase on Superdex 200 Increase 3.2/300 GL; dimer and tetramer peaks analysed, hexamer peak not usable; self-association

B1: yeast inorganic pyrophosphatase (enzyme)
chain: TYTTRQIGAKNTLEYKVYIEKDGKPVSAFHDIPLYADKENNIFNMVVEIPRWTNAKLEITKEETLNPIIQDTKKGKLRFVRNCFPHHGYIHNYGAFPQTWEDPNVSHPETKAVGDNDPIDVLEIGETIAYTGQVKQVKALGIMALLDEGETDWKVIAIDINDPLAPKLNDIEDVEKYFPGLLRATNEWFRIYKIPDGKPENQFAFSGEAKNKKYALDIIKETHDSWKQLIAGKSSDSKGIDLTNVTLPDTPTYSKAASDAIPPASPKADAPIDKSIDKWFFISGSV
notes: inorganic pyrophosphatase, product of the yeast gene IPP1, family 1 iPPase (EC 3.6.1.1); expressed from plasmid pET29b-IPP1-His; no cleavage is described; also called iPPase; yeast iPPase
[1]
  stoichiometry N: 2 and 6
[2]
  stoichiometry N: 4
